From EP4635986A1 (National and Kapodistrian University of Athens, dated 2025)

Columns and labels:
PEc fragment aa 1-12 = target: T1, PEc fragment aa 1-12 (human); experiment: dot blot on nitrocellulose
T1 peptide: YQPPSTNKNTKS

[1] = target: T2, human Ec peptide (PEc), whole, 24 amino acids (human); experiment: dot blot, peptide on nitrocellulose, 2.5 µg/mL MAb
T2 construct: also called human PEc; whole PEc
T2 peptide: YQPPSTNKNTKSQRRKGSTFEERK

PEc fragment aa 13-24 = target: T3, PEc fragment aa 13-24 (human); experiment: dot blot, peptide on nitrocellulose, 2.5 µg/mL MAb
T3 construct: also called the last 12 amino acids
T3 peptide: QRRKGSTFEERK

B1: anti-PEc monoclonal antibody (MAb) of Example 1 (antibody, mouse IgG1, kappa, V domains shown)
VH: EVQLQQSGAELVRSGASVKLSCAASGFNLKDYYIHWVKQRPEQGLEWIGWIDPENGDTEYAPKFQGRATMTADTSSNTAYLHLSSLTSEDTAVYYCFANDVDCWGQGTTLTVSS
VL: DVVMTQPPLSLPVSLGDQASISCRSSQSLVHSNGKTYLHWYLQKPGQSPKLLIYKLSNRFSGVPDRFSGSGSGTDFTLKISRVEAEDLGVYFCFQSTHIPYTFGGGSKLEIRR
notes: Obtained from a mouse hybridoma, then expressed recombinantly in CHO cells; Called an IgG MAb; captured with anti-mouse Fc and detected with anti-mouse HRP; also called anti-PEc MAb; anti PEc MAb
binding result (PEc fragment aa 1-12): no binding
binding result [1]: binds
binding result (PEc fragment aa 13-24): binds
